The target in experiment [1] is CH505TF4.1 SOSIP Trimer (HV1301189, CH505TF.6R.SOSIP.664.v4.1) (HIV-1). Description: SPR antibody binding; drug substance of the 200 L scale run 2.
The target is the same in experiment [2]. The experiment can be described thus: SPR antibody binding; drug substance of the 50 L scale run.
For experiment [3] the target is unchanged. Description: SPR antibody binding; drug substance of the 200 L scale run 1.

We go through two substances from US20220041650A1.

One may read the Kd as the concentration at which binding is half-saturated.

With PGT145 (antibody), the Kd is 11.7 nM in experiment [1], 11 nM in experiment [2] and 11.3 nM in experiment [3].
Taken in the same sequence, the figures for PGT151 (antibody) were 13.1 nM, 17.5 nM and 16 nM.
